# From US20250032627A1, “T[…] BASED UPON DRUG CONJUGATES” (priority 2023, published 2025)
# What was measured:
# [1] = Solubility and stability of CPT-K3 in borate buffer precursor solution; assay type: physicochemical
# Description: Referring now to FIG. 3, CPT-K3 remains stable in a clear precursor solution.
# [2] = system: U87 glioblastoma cells; experiment: In vitro cytotoxicity, cell viability by SRB method; assay type: cell-based, human; settings: CPT compared with CPT-K3
# Description: FIG. 10A is a table providing the IC50 of CPT and CPT-K3. FIG. 10B is a plot of cell viability (%) vs. concentration;
# FIG. 10A is a table providing the IC50 of CPT and CPT-K3. FIG. 10B is a plot of cell viability (%) vs. concentration. In this example, cell viability (%) was determined using the SRB method.
Structure (SMILES),stability in borate buffer (time stable) ([1]; 75-mM borate buffer),solubility in borate buffer ([1]; borate buffer),cytotoxicity against the U87 glioblastoma cell line [2]
CC[C@@]1(OC(=O)CCC(=O)N[C@@H](CCCCN)C(=O)N[C@@H](CCCCN)C(=O)N[C@@H](CCCCN)C(=O)O)C(=O)OCc2c1cc1n(c2=O)Cc2cc3ccccc3nc2-1 [CPT-K3],at least 24 hours,good solubility,comparable cytotoxicity
"CC[C@@]1(O)C(=O)OCc2c1cc1n(c2=O)Cc2cc3ccccc3nc2-1 [CPT, camptothecin, reference compound]",,,comparable cytotoxicity
